Measurements as given in patent publication US20260015398A1.

Biological target: strepII-flag-PLXA fusion protein displayed on engineered extracellular vesicles (strepII-flag-PLXA-EV) (Homo sapiens (Human)) (UniProt Q9UIW2)
Test: in vitro co-incubation of EVs with FITC-streptactin (10000:1), nanoflow cytometry, share of FITC-positive EVs

UniProt Q9UIW2, sequence (Q9UIW2 863-1316 limits assumed, change not shown): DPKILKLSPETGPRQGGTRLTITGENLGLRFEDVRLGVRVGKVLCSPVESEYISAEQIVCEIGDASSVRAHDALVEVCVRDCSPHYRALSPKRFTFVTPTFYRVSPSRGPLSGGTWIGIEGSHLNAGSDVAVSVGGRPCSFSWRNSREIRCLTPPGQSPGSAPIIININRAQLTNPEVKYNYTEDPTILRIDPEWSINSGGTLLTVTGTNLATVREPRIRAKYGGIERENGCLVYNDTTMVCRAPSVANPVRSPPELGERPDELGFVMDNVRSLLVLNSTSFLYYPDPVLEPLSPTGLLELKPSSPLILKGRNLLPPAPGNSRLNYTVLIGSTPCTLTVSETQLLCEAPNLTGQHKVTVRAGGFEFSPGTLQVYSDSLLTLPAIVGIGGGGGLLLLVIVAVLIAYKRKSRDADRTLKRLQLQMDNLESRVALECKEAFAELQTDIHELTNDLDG

FITC-streptactin
positive rate: 73%
